Assay results reported in patent US20200297862A1 (Zymeworks, published 2020).

Assays:
Recombinant human HER2 [1] = biological target: T1, Recombinant human HER2 (human, UniProt P04626 23-652); experiment: SPR as in Example 12, one-armed antibody, pre-SEC, against v10013
T1 construct: extracellular domain

Recombinant human HER2 [2] = biological target: T1, Recombinant human HER2; experiment: SPR as in Example 12, one-armed antibody, post-SEC, against v10013

- Fold wrt WT (KD(WT)/KD(mut)) (Recombinant human HER2 [1]): 8.1 fold
- Fold wrt WT (KD(WT)/KD(mut)) (Recombinant human HER2 [2]): 7 fold
B1: Variant 10014 (antibody, name in Kabat numbering, V domains shown)
VH: EVQLVESGGGLVQPGGSLRLSCAASGFTFADYTMDWVRQAPGKGLEWVADVNPNSGGSIYNQRFKGRFTLSVDRSKNTLYLQMNSLRAEDTAVYYCARNLGPSFYFDYWGQGTLVTVSS
VL: DIQMTQSPSSLSASVGDRVTITCKASQDVSIGVAWYQQKPGKAPKLLIYSASYRYTGVPSRFSGSGSGTDFTLTISSLQPEDFATYYCQQYYIYPATFGQGTKVEIK
notes: also called v10014; OAA variant
